The record followed here is PMC9279676, “ERK2 MAP kinase regulates SUFU binding by multisite phosphorylation of GLI1” (Life Science Alliance, 2022).

The labels stand for the following.
B1: GLI1_(1-232), wild type, 35S-radiolabeled [modified: [35S]-methionine label; [35S]-methionine label] [human] / GST-SUFU (fusion of GST to full-length human SUFU) [human] (parent complex)
chain 1: MFNSMTPPPISSYGEPCCLRPLPSQGAPSVGTEGLSGPPFCHQANLMSGPHSYGPARETNSCTEGPLFSSPRSAVKLTKKRALSISPLSDASLDLQTVIRTSPSSLVAFINSRCTSPGGSYGHLSIGTMSPSLGFPAQMNHQKGPSPSFGVQPCGPHDSARGGMIPHPQSRGPFPTCQLKSELDMLVGKCREEPLEGDMSSPNSTGIQDPLLGMLDGREDLEREEKREPESV
chain 2: MAELRPSGAPGPTAPPAPGPTAPPAFASLFPPGLHAIYGECRRLYPDQPNPLQVTAIVKYWLGGPDPLDYVSMYRNVGSPSANIPEHWHYISFGLSDLYGDNRVHEFTGTDGPSGFGFELTFRLKRETGESAPPTWPAELMQGLARYVFQSENTFCSGDHVSWHSPLDNSESRIQHMLLTEDPQMQPVQTPFGVVTFLQIVGVCTEELHSAQQWNGQGILELLRTVPIAGGPWLITDMRRGETIFEIDPHLQERVDKGIETDGSNLSGVSAKCAWDDLSRPPEDDEDSRSICIGTQPRRLSGKDTEQIRETLRRGLEINSKPVLPPINPQRQNGLAHDRAPSRKDSLESDSSTAIIPHELIRTRQLESVHLKFNQESGALIPLCLRGRLLHGRHFTYKSITGDMAITFVSTGVEGAFATEEHPYAAHGPWLQILLTEEFVEKMLEDLEDLTSPEEFKLPKEYSWPEKKLKVSILPDVVFDSPLH

Variants of B1 are the subject of the test. Description: GST-SUFU pull-down binding assay with 35S-radiolabeled in vitro-translated GLI1; parent: 8 nM.
With chain 1 S130E, the Kd was found to be 21 nM.
Consider chain 1 S102E, for which the Kd is 67 nM.
